Measured values published in publication PMC9289529, “Varicella‐Zoster virus ORF9 is an antagonist of the DNA sensor cGAS”.

Experiments:
[1] = target: T1, hcGAS (human, UniProt Q8N884 1-522); test: phase separation microscopy; droplets sensitive to salt >250 mM; none at 300 mM NaCl/KCl; Binding buffers for pull-down, EMSA and phase separation not in the material; phase separation tested at varied NaCl/KCl up to 300 mM or more; details: protein: recombinant; tags: 6xHis-SUMO2 construct (pET); blunt
[2] = target: T2, ORF9 (phase separation preparation) (Varicella-zoster virus, UniProt Q4JQW6 1-302); test: phase separation microscopy; no cGAS; smaller droplets than cGAS-DNA; Binding buffers for pull-down, EMSA and phase separation not in the material; phase separation tested at varied NaCl/KCl up to 300 mM or more; details: protein: recombinant; tags: 6xHis-SUMO2 removed by SENP2; blunt
T2 sequence: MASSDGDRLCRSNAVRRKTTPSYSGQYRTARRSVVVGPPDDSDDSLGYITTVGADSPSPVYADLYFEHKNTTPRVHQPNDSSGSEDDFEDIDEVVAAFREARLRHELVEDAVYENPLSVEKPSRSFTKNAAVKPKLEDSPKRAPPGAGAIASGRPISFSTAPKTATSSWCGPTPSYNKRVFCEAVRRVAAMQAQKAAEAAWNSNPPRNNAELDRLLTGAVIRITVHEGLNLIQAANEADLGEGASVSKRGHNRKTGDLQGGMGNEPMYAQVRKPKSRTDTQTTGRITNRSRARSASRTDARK

[3] = target: hcGAS;ORF9 (phase separation preparation) (human;Varicella-zoster virus, UniProt Q8N884;Q4JQW6 1-522;1-302, |); test: phase separation microscopy; 3-fold molar excess ORF9; larger droplets, also formed at 300 mM NaCl/KCl; Binding buffers for pull-down, EMSA and phase separation not in the material; phase separation tested at varied NaCl/KCl up to 300 mM or more; details: protein: recombinant;recombinant; tags: 6xHis-SUMO2 construct (pET);6xHis-SUMO2 removed by SENP2; blunt
[4] = target: cGAS (pull-down preparation) (human, UniProt Q8N884 1-522); test: pull-down; Binding buffers for pull-down, EMSA and phase separation not in the material; phase separation tested at varied NaCl/KCl up to 300 mM or more; details: protein: recombinant; tags: GST cleaved by PreScission; label: biotin; blunt
[5] = target: T3, ORF9 (FLAG-ORF9) (Varicella-zoster virus, UniProt Q4JQW6 1-302); test: pull-down; details: protein: recombinant; tags: N-terminal FLAG (GST cleaved by PreScission); label: biotin; blunt
T3 sequence: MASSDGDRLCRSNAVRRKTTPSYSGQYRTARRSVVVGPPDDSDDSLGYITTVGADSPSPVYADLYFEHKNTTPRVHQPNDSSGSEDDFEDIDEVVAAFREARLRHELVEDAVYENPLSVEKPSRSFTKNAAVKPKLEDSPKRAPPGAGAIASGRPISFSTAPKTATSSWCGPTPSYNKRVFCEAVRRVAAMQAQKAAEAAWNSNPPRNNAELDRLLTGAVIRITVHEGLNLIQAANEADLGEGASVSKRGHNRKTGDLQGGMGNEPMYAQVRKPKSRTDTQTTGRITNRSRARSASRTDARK

[6] = target: hcGAS;ORF9 (EMSA preparation) (human;Varicella-zoster virus, UniProt Q8N884;Q4JQW6 1-522;1-302, |); test: EMSA (agarose); increasing ORF9 enlarges cGAS-DNA complexes; Binding buffers for pull-down, EMSA and phase separation not in the material; phase separation tested at varied NaCl/KCl up to 300 mM or more; details: protein: recombinant;recombinant; tags: 6xHis-SUMO2 construct (pET);N-terminal FLAG (pET28a, Ni-NTA purified); blunt
[7] = target: T1, hcGAS; test: EMSA (agarose); high-molecular-weight complexes; Binding buffers for pull-down, EMSA and phase separation not in the material; phase separation tested at varied NaCl/KCl up to 300 mM or more; details: protein: recombinant; tags: 6xHis-SUMO2 construct (pET); blunt
[8] = target: T4, ORF9 (EMSA preparation) (Varicella-zoster virus, UniProt Q4JQW6 1-302); test: EMSA (agarose); Binding buffers for pull-down, EMSA and phase separation not in the material; phase separation tested at varied NaCl/KCl up to 300 mM or more; details: protein: recombinant; tags: N-terminal FLAG (pET28a, Ni-NTA purified); blunt
T4 sequence: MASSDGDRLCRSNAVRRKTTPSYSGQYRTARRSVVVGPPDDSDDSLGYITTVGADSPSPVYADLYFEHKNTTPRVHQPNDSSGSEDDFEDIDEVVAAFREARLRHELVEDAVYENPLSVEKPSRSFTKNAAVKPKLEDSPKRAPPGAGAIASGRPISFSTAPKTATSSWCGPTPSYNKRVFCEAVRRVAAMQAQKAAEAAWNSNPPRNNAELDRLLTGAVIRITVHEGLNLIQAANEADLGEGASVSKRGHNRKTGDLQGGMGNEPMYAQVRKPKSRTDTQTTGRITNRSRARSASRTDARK

T1 sequence (Q8N884 whole entry): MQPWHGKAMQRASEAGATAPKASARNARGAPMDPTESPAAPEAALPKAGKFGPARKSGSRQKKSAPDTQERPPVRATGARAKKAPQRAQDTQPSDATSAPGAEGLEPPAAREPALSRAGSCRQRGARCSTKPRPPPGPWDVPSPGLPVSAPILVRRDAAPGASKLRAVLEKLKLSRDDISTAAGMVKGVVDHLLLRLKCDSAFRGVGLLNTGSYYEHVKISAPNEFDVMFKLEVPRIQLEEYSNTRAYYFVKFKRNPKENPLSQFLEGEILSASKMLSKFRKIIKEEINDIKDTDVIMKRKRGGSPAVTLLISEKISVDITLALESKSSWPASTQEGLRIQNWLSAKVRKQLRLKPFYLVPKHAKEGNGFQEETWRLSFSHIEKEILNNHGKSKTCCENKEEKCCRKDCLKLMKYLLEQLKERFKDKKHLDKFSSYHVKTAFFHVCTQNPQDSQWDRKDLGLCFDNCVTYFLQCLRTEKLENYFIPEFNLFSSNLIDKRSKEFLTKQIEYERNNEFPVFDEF
Chain of hcGAS;ORF9 (EMSA preparation) (Q8N884 whole entry, one chain of several): as the sequence (Q8N884 whole entry) above
Chain of cGAS (pull-down preparation) (Q8N884 whole entry): as above
Chain of hcGAS;ORF9 (phase separation preparation) (Q8N884 whole entry, one chain of several): as the sequence (Q8N884 whole entry) above

B1: 100 bp ISD (dsDNA)
DNA 1: ACATCTAGTACATGTCTAGTCAGTATCTAGTGATTATCTAGACATACATCTAGTACATGTCTAGTCAGTATCTAGTGATTATCTAGACATGGACTCATCC
DNA 2: GGATGAGTCCATGTCTAGATAATCACTAGATACTGACTAGACATGTACTAGATGTATGTCTAGATAATCACTAGATACTGACTAGACATGTACTAGATGT
B1: binds [1]; binds [2]; binds [3].

B2: VACV-70mer-Biotin (dsDNA)
DNA 1: CCATCAGAAAGAGGTTTAATATTTTTGTGAGACCATCGAAGAGAGAAAGAGATAAAACTTTTTTACGACT
DNA 2: AGTCGTAAAAAAGTTTTATCTCTTTCTCTCTTCGATGGTCTCACAAAAATATTAAACCTCTTTCTGATGG
modifications: 3' TEG-biotin on forward strand
B2: binds [4]; binds [5].

B3: VACV70mer dsDNA (dsDNA)
DNA 1: CCATCAGAAAGAGGTTTAATATTTTTGTGAGACCATCGAAGAGAGAAAGAGATAAAACTTTTTTACGACT
DNA 2: AGTCGTAAAAAAGTTTTATCTCTTTCTCTCTTCGATGGTCTCACAAAAATATTAAACCTCTTTCTGATGG
B3: binds [6]; binds [7]; binds [8].
